Measurements taken from article PMC5694763.

Target: dCas9 (SpCas9 D10A/H840A) D10A;H840A (Streptococcus pyogenes) (UniProt Q99ZW2)
Assay: SPR
Settings: SPR: PBS, 0.005% Tween-20, 25 C, BLI: PBS, 0.005% Tween-20, 1 mM MgCl2, 50 ug/ml heparin, SwitchSENSE: 20 mM Tris pH 7.4, 100 mM KCl, 5 mM MgCl2, 0.01% …

Substance	Kd (DNA with 7 RNA residues (1,15,16,19,22,23,24)) [nM]	Kd (dCas9 immobilised, 1.2-100 nM titration) [nM]	Kd (dCas9 immobilised, kinetic 1:1 fit) [nM]
AGCACTGCACGCCGUAGGUCGUUUTAGAGCTATGCTGTTTTG [GFP cr1 crHyb with tracrRNA]	< 1		
tracrRNA (88 nt)		6.2	0.308
